Test results from paper PMC8591454 (Frontiers in Microbiology, 2021).

Biological target: T1, truncated capsid protein sar239 from genotype 1 HEV Sar55 strain (hepatitis E virus genotype 1, strain …, UniProt P33426 368-606)
T1 sequence: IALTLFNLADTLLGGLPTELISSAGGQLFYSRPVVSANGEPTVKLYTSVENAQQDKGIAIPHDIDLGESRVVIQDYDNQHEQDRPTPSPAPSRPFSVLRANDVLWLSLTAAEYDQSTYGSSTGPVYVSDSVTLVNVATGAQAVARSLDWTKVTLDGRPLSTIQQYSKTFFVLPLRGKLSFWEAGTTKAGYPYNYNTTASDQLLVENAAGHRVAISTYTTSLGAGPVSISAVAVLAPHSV
Experiment: ELISA
Conditions: both partners purified

B1: His-tagged cell division control protein 42 (CDC42-His) (natural protein)
chain: not shown
notes: also called recombinant CDC42-His protein
B1: binds.
